Assays:
[1] = biological target: T1, IL-2Rαβγ (trimeric high-affinity IL-2 receptor), human, on cells (human, UniProt P01589 22-272; P14784 27-551; P31785 23-369); assay: cell-based or functional assay
T1 sequence (looked up) 1: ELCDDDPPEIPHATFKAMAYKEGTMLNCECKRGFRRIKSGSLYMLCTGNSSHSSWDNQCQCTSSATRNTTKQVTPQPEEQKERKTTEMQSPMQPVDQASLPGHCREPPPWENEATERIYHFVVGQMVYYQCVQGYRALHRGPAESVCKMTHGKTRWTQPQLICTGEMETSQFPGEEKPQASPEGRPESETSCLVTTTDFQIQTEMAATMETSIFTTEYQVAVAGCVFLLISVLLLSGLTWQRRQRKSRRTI
T1 sequence (looked up) 2: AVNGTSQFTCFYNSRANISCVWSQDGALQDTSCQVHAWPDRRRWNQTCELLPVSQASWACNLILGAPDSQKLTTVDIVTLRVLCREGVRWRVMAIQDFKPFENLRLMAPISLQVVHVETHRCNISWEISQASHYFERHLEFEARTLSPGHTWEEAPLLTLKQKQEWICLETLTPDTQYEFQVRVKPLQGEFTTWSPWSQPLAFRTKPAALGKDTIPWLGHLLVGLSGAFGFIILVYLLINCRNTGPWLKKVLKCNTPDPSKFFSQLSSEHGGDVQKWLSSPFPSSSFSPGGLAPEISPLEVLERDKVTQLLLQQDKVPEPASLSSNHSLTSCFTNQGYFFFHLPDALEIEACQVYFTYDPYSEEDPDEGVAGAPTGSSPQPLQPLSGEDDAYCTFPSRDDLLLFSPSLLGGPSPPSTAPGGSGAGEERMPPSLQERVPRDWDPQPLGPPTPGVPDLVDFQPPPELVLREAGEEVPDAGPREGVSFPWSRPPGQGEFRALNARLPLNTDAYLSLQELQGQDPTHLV
T1 sequence (looked up) 3: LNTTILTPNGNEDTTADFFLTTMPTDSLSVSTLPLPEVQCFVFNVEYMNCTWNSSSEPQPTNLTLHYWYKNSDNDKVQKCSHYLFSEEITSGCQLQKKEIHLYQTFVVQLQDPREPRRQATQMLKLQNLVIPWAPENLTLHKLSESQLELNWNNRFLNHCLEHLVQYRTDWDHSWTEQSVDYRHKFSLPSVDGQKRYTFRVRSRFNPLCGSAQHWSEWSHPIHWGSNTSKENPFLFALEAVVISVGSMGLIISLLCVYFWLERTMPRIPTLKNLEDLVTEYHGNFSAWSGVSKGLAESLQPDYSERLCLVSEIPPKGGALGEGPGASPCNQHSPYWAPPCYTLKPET

[2] = biological target: T2, Human IL-2 Receptor alpha, Fc-Tag (Symansis, New Zealand) (human, UniProt P01589 22-240); assay: SPR; KD to IL-2Rα divided by KD to IL-2Rβ of the same compound
T2 construct: extracellular domain; Bought reagent; also called IL-2Rα; IL-2Rα-Fc; not shown: Fc-Tag (captured by anti-human IgG (Fc) antibody)
T2 sequence (looked up): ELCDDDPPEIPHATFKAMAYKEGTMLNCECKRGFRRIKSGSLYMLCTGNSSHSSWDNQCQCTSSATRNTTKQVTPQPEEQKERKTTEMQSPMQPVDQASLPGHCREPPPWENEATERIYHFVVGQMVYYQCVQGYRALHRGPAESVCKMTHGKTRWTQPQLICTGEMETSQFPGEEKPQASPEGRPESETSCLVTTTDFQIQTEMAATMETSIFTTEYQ
Description: (§1) For the determination of binding kinetics to IL-2Rα the following chip preparation was used: Human IL-2 Receptor alpha, Fc-Tag (Symansis, New Zealand) was diluted in HBS-EP running buffer (GE Healthcare, 10 mM HEPES, 150 mM NaCl, 3 mM EDTA, 0.05% Surfactant P20, pH 7.4) to approx. 0.25 µg/mL and immobilized at a flow rate of 50 µL/min for 60 s to achieve 90 - 110 response units (RU).
as §1, with “IL-2Rβ” for “IL-2Rα”, “beta,” for “alpha,”, “around” for “approx.”, “300” for “90”, “330” for “110”
(50 µL/min flow rate, 60 s contact time, 300 s dissociation time). Double referenced data (subtracted data from the reference flow cell and the buffer only samples) was analysed via a kinetic fit (1:1 binding model) to determine KD, kₐ and kd. Regeneration after each cycle was performed with 3 M MgCl₂.

fold lower potency than 1d, pSTAT5, Tregs (human PBMCs) [1]: ~1900 fold
KD-Ratio (α/β) [2]: > 2.7
B1: protein 6 (ligand)
chain: APTSSSTKKTQLQLEHLLLDLQMILNGINNYKNPKLTFGNSTKFYMPKKATELKHLQCLEEELKPLEEVLNLAQSKNFHLRPRDLISNINVIVLELKGSETTFMCEYADETATIVEFLNRWITFSQSIISTLT
modifications: glycosylated (same sequence with the N-glycosylation motif FGNST as protein 1f); glycan sites not analysed separately for protein 6

— patent US20230340055A1 (published 2023)
